# System: Escherichia coli TOP10
# Assay: shrunken log2 fold change of peptide-encoding DNA abundance (4.5 h post-induction vs induction); higher = less antimicrobial activity (less host growth inhibition)
# Details: time post-induction: 4.5 h; library: site-saturation at positions 5, 18, 19, 20
# 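Further: peptides expressed intracellularly from a pBAD plasmid library in pooled LB shake-flask culture, induced with 0.3% L-arabinose, DNA abundance read by NGS, three biological replicates, DESeq2 with apeglm shrinkage.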
row,Sequence,shrunken log2 fold change
1,RRIRERPPRLPRPRPRPTMHPRP,-0.229
2,RRIRERPPRLPRPRPRPTMIPRP,-0.597
3,RRIRERPPRLPRPRPRPTNIPRP,-0.905
4,RRIRERPPRLPRPRPRPTNQPRP,-0.414
5,RRIRERPPRLPRPRPRPTNVPRP,-0.387
6,RRIRERPPRLPRPRPRPTPRPRP,0.669
7,RRIRERPPRLPRPRPRPTQVPRP,-0.0607
8,RRIRERPPRLPRPRPRPTRGPRP,0.0807
9,RRIRERPPRLPRPRPRPTSDPRP,-0.0201
10,RRIRERPPRLPRPRPRPTSPPRP,-0.185
11,RRIRERPPRLPRPRPRPTSQPRP,-0.235
12,RRIRERPPRLPRPRPRPTWWPRP,0.412
13,RRIRERPPRLPRPRPRPVAQPRP,-0.201
14,RRIRERPPRLPRPRPRPVDFPRP,-0.0586
15,RRIRERPPRLPRPRPRPVGHPRP,-0.000999
16,RRIRERPPRLPRPRPRPVGVPRP,0.0502
17,RRIRERPPRLPRPRPRPVIRPRP,-0.305
18,RRIRERPPRLPRPRPRPVKGPRP,0.0229
19,RRIRERPPRLPRPRPRPVLNPRP,-0.54
20,RRIRERPPRLPRPRPRPVMCPRP,0.0654
21,RRIRERPPRLPRPRPRPVNFPRP,-0.0265
22,RRIRERPPRLPRPRPRPVNSPRP,0.0303

row,Sequence,shrunken log2 fold change
1,RRIRERPPRLPRPRPRPVPAPRP,0.224
2,RRIRERPPRLPRPRPRPVVKPRP,-0.413
3,RRIRERPPRLPRPRPRPVVMPRP,0.116
4,RRIRERPPRLPRPRPRPVWVPRP,0.0145
5,RRIRERPPRLPRPRPRPVYQPRP,-0.0713
6,RRIRERPPRLPRPRPRPVYSPRP,-0.409
7,RRIRERPPRLPRPRPRPWADPRP,-0.00088
8,RRIRERPPRLPRPRPRPWFRPRP,-0.214
9,RRIRERPPRLPRPRPRPWHCPRP,-0.0723
10,RRIRERPPRLPRPRPRPWINPRP,-0.637
11,RRIRERPPRLPRPRPRPWKQPRP,-0.0582
12,RRIRERPPRLPRPRPRPWNTPRP,-0.00122
13,RRIRERPPRLPRPRPRPWNVPRP,-0.0549
14,RRIRERPPRLPRPRPRPWRDPRP,-0.268
15,RRIRERPPRLPRPRPRPWSHPRP,-0.168
16,RRIRERPPRLPRPRPRPWSTPRP,-0.237
17,RRIRERPPRLPRPRPRPWTPPRP,-0.15
18,RRIRERPPRLPRPRPRPWTQPRP,-0.298
19,RRIRERPPRLPRPRPRPWVMPRP,-0.32
20,RRIRERPPRLPRPRPRPWWTPRP,-0.0694
21,RRIRERPPRLPRPRPRPWYCPRP,0.00607
22,RRIRERPPRLPRPRPRPWYDPRP,-0.392

row,Sequence,shrunken log2 fold change
1,RRIRERPPRLPRPRPRPWYHPRP,-0.588
2,RRIRERPPRLPRPRPRPWYKPRP,-0.0738
3,RRIRERPPRLPRPRPRPWYNPRP,-0.174
4,RRIRERPPRLPRPRPRPYCKPRP,0.0936
5,RRIRERPPRLPRPRPRPYDDPRP,-0.341
6,RRIRERPPRLPRPRPRPYELPRP,-0.563
7,RRIRERPPRLPRPRPRPYEQPRP,-0.395
8,RRIRERPPRLPRPRPRPYEVPRP,-0.448
9,RRIRERPPRLPRPRPRPYGIPRP,-0.00973
10,RRIRERPPRLPRPRPRPYIHPRP,-0.17
11,RRIRERPPRLPRPRPRPYIWPRP,0.0553
12,RRIRERPPRLPRPRPRPYNMPRP,0.0461
13,RRIRERPPRLPRPRPRPYNTPRP,-0.742
14,RRIRERPPRLPRPRPRPYPVPRP,-0.224
15,RRIRERPPRLPRPRPRPYQCPRP,-0.00884
16,RRIRERPPRLPRPRPRPYQWPRP,0.0039
17,RRIRERPPRLPRPRPRPYSLPRP,-0.0204
18,RRIRERPPRLPRPRPRPYSYPRP,-0.0155
19,RRIRERPPRLPRPRPRPYTKPRP,-0.277
20,RRIRERPPRLPRPRPRPYVIPRP,-0.172
21,RRIRERPPRLPRPRPRPYWLPRP,-0.294
22,RRIRFRPPRLPRPRPRPAADPRP,0.0709

row,Sequence,shrunken log2 fold change
1,RRIRFRPPRLPRPRPRPAAPPRP,0.745
2,RRIRFRPPRLPRPRPRPACKPRP,-0.0419
3,RRIRFRPPRLPRPRPRPACMPRP,-0.263
4,RRIRFRPPRLPRPRPRPADQPRP,-0.144
5,RRIRFRPPRLPRPRPRPAECPRP,-0.16
6,RRIRFRPPRLPRPRPRPAETPRP,0.0238
7,RRIRFRPPRLPRPRPRPAFHPRP,-0.228
8,RRIRFRPPRLPRPRPRPAFSPRP,0.049
9,RRIRFRPPRLPRPRPRPAGAPRP,0.515
10,RRIRFRPPRLPRPRPRPAHKPRP,0.225
11,RRIRFRPPRLPRPRPRPAIRPRP,-0.32
12,RRIRFRPPRLPRPRPRPAKHPRP,-0.149
13,RRIRFRPPRLPRPRPRPAKIPRP,0.117
14,RRIRFRPPRLPRPRPRPAKQPRP,-0.0234
15,RRIRFRPPRLPRPRPRPALVPRP,0.273
16,RRIRFRPPRLPRPRPRPANAPRP,-0.0885
17,RRIRFRPPRLPRPRPRPANFPRP,0.151
18,RRIRFRPPRLPRPRPRPAPPPRP,0.736
19,RRIRFRPPRLPRPRPRPARWPRP,0.577
20,RRIRFRPPRLPRPRPRPASEPRP,0.21
21,RRIRFRPPRLPRPRPRPASNPRP,-0.479
22,RRIRFRPPRLPRPRPRPATIPRP,-0.506

row,Sequence,shrunken log2 fold change
1,RRIRFRPPRLPRPRPRPATVPRP,0.00554
2,RRIRFRPPRLPRPRPRPAVQPRP,-0.0142
3,RRIRFRPPRLPRPRPRPAWIPRP,-0.106
4,RRIRFRPPRLPRPRPRPAWYPRP,-0.103
5,RRIRFRPPRLPRPRPRPAYNPRP,-0.486
6,RRIRFRPPRLPRPRPRPCAKPRP,-0.0688
7,RRIRFRPPRLPRPRPRPCCFPRP,-0.354
8,RRIRFRPPRLPRPRPRPCCWPRP,0.148
9,RRIRFRPPRLPRPRPRPCERPRP,-0.141
10,RRIRFRPPRLPRPRPRPCFYPRP,-0.394
11,RRIRFRPPRLPRPRPRPCGEPRP,-0.0646
12,RRIRFRPPRLPRPRPRPCHFPRP,-0.00959
13,RRIRFRPPRLPRPRPRPCHKPRP,-0.443
14,RRIRFRPPRLPRPRPRPCHLPRP,-0.0779
15,RRIRFRPPRLPRPRPRPCHRPRP,-0.113
16,RRIRFRPPRLPRPRPRPCKQPRP,0.00386
17,RRIRFRPPRLPRPRPRPCLWPRP,-0.0174
18,RRIRFRPPRLPRPRPRPCMGPRP,-0.49
19,RRIRFRPPRLPRPRPRPCMRPRP,0.0466
20,RRIRFRPPRLPRPRPRPCNKPRP,-0.249
21,RRIRFRPPRLPRPRPRPCNTPRP,-0.0482

# Reference: the supplement of paper PMC9112550, “Optimization of the antimicrobial peptide Bac7 by deep mutational scanning” (BMC Biology, 2022)
